From the NTF2 design screens of Basanta et al. (2020)

Assay: protease stability score; higher = more stable; yeast display proteolysis, trypsin and chymotrypsin;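 note: relative to predicted unfolded state with 0 unfolded-like and 1 meaning tenfold more protease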

Sequence | protease stability score
DERKKDAERMVEWIMHLWETGNFERLFRLADPHVRFILHQGDKELHFHGRELVEEAIFRLLLHIRIDDRIDRRVHIFPNRLDIHGQVHVHVGDKRHDLIIHIEVFIIDGKLKRIEIEIE | 1.49
DERKTISHMIEEIWHRIIRTGDEEAFIKYFDPHARIHVDGKEIHGREKVLEFLIEIFRHLRVEDYTVHSYNTQGDKIHIDTRMDGEVDGRREVNQTRIIATKINGQWILTEVHLS | 0.36
DERLEIARRVVELSIRMLHTGNEEVVRHLLDPNYRLHINGVHLIGMEEFSKWLKELRFDLEHVQMHHITDINGRLFVIGEIIGRLHYDGVTVREERESIWFIEKVDGKWIIKEVELR | 1.18
DERMEVIEELLKKISHALYTGNEKLLEQMADPNVRLEIGDKEFVGWEQLLELIREIRLSITDIDIRDERLIGNKIHLRGESRTIHVIGDKTWEERRDVHFVILKIDGKWVMHEIEYR | 1.95
DERNDRAREYVELWEDALRTGDEHILMELADPHTRIEIGEFEIIGREEIMRFMNEIRVHVRESRIKRVTEIDGVLFADIHVRREFRFDGRSKEVRTDVIIIFNKFDGKWLLESVHVK | -0.01
DERQEEARKMFEDVYKAVWTGDEEELLRLMDPNVRIDIDGKILHGREALSEEWKRVDHVHHEHHEDMKVIGNKLHVRGHIEVDIDGRNLRYTIDNYLVVVNGRIKEVKEREV | 0.664
DERQHEARKVFLEWIRREVTGDFERVRHLADPNMRMDINGVEHHGRDRMSELIFRQLEEMRIEIHIRHYHVIGEKVHANIEMRVRQGDWDETRTIEIIFVVIDGRLHDYTVHIL | 0.643
DERQHHAENFHELFFRWVETGDWENQRELADPNMRVDLVVNGVELHDHGMDSFTKRLHELRLHHLDIRSVHYVNGRIDSDIRVDGVIDGRRIDTHMRLHLRVINGKMREIRIQID | 1.33
DERQKELQEFAERLMRVLNTGDWEHTEQLLDPHVRVHFNGRDFHGWEEIVRFWTELRNQFDHFELRVDTVRIQGDKVENDGNAIFRIDGKELRHRITIHVFLINGKIKRVNVEIR | 1.68
DERREIMEEWARDVIEWLETGDFEAIERNLDPNVRHDFNGKEFHGREQVIKSFHDILKRIKNIRIETRHIEVVDGVTHWDGDVNVNGVRTHVDINIEVINGVFHDFYIKFK | 1.19
DERREQTRHWINMFTHAMRTGDEHTFKELLDPHVRVKDEHEEDHGRDKAVELFSRVDVFHDIKLRDIDVQGNYVTIEVELLGEIDGKRTTHDLHIITYKINGRWILKSVSIR | 1.06
DERRKLEEDILELMLRVFETGDFDTFIKFADPNTRSDVNGRQYHGREWLAEMWKITLEELGADHFELTSYDVFNGRVHLRIRVHVGDKQRSMTIEIQVINGKVQSIRIDIE | 1.4
DERSEEVRRLIKNLVDFFHTGDWRLIQDLADPNVRTDVNGVEHHGREEVTKMLEELVRRFRNVRLHIRDHHIQGEWVIVILEFHVGDKSFELHMFALKINGRWTLTSIEVR | 2.37
DERSHVLEEVLKKTSRANETGNEEIIEENLDPNTRFDWNGVIIHGREQWLELVKHMRISIHHFDTRDIREFNGRADVRGDMDSVIEVDGRRLRLDTHVIYHATKVDGRWVITEIRIH | 0.41
DERSRNLEHYAKDLVEDWLTGDFRRYSKLADPNALTIFNGVELHGRELVIRMMNELRHRIDHLEIRIEDSHIQGNKVKIDSHRIMNVNGVEYRTKTEEWFDIVDGRVKSVEIRVH | 0.426
DERTEEVKRITEEFREAERTGDWERLLELIDPDVRIEIIINGRRETYHGREDAKRVLEEWYKQFKNITLKLREMRIQGDKTDLEVEVNVNGRRHDIRVHLHIVNGRIKEIRIEVI | 1.63
DERTEFLERMSEHLTHVWHTGNEELWNRLADPRARFIEFVDGKKNHHHGMEVASNRIKKWRKDLGIDHVRLKEERVQGNKVELHLQVDINGVEQTVEIYNSIVDGRFESLEVNIHTR | 0.074
DERTEHFREYREKVLESIETGDPRVIKEMLDPNAKVEIVIGEKNFDLHGREEVMRWYEEWVEKYKGMRIHINHVEVQGEKIIVDSELEVNGKSHKTDLIITAFNGVIKETRVEIN | 1.06
DERTEHNRQLAEEITRALLTGDWHEIEKQADPHVKFRQGEFSYVGREDLVRFWEEFIKKIKNITLRIREIRVIGDKVHIHNDLKIGDKETHVHIILVLIDGRLHHLEIRIE | 1.45
DERTEHSEENVKLFIEALRTGDFKTLLRLVDPHVRVIVIINGKEINNHGWEEFLRWMREEFERYPNLRVKVRHLDIQGDFVRVEGHLEVGDKSHRIHLHLLIINGVVELELYIFR | 1.92
DERTELTRNFFEEMVDTMITGNEHLEHRLADPNVRIYVGEKRIHGMERYIHQHHQWRFKDFKLKDIDTQGDKATIDGHLEGEVNGKDTRTDVEVHTLKFNGRWLIHTLRIR | 1.1
DERTEVSEEFHRILIKVWRTGDETLSHQLADPHAKAEIGDKTIHGRDLWKEVFRRESERYDHYDSRLKDVKVQGDYINLDVHLILHVDGVPVRTDVIEIVLKFNGRWRLHSFHVK | 0.684
DERTEYFIREAREMLRDWVTGDWKRLHELMDPNARQDVNGVKNVGRDELSEFFEKFRERFDVYELRITEERHQGNKFIVKGDFHSNQGEFTFHHELEVHIVVVNGQFKRIEMRIR | 1.55
DERTHHLEQLYRRMYEHWETGDEKFHRELLDPHARVDINGQDVHGMHWIEEEMRMQREHIRIEHVIIKSIEIVDGKIHMNGIILGDINGRRVNVEVRFHVIIINGKARLVEVKIL | 0.025
DERTKEDEKWAKLFLEWHKTGNEEAFSHFADPHTRNTINGVELIGRESLMEFSKRWIEELRFKQLHIRDFKVVNGRVHIDSELHGIINGQEISTTVKIHIDIINGQTKSVEVRIL | 1.17

Sequence | protease stability score
DERTKQFNELLHIFIRDLHTGDEESHERMMDPNVRTEVGEFRMHGRENVRHWWHEWLRLLGLDRIEVRVRDHHVIDGRLRIDVELKQGDKNIDTHVILVVINGRMHSQRYEFH | 0.717
DERTKSYELALRIIEHVNKTGDEEMSTHMADPNARVVQGEKEIHGRELFIRWMKEIRVEDIKHRDKTIIGDKLILRVDIHGIIDGRHEDFHVILIVTKVNGRWHLEEVRIH | 1.36
DERTLEQLLQDFINNMQTGDHQSLKDLLDENARVNIGDKTLSGRERVTTALKRLMRRVDHIQVDHYEVTNGEMNIDMQLEVNGVRVKVEVIIEVHNGKAKFIEFRVRNEEQWERVEG | 2.19
DESAVNNLVRLAKAWLRGDPKKIEHLVDKDAKAQIGDKTLHGREDLKDHADELRKDMTVDVKSVTNNNQNGQAVVDVKFEADRNGRPETHTLDAKATAHNGDIVDVKIHQDG | -0.049
DESDKEREDVFRSWIESMRTGDEKNMRELMDPHARTEIGDKEYHGREVVEYIRREWRITHVELHRIEKQGDKIISHGHDEINIDGRKLYIHSRIIARKVNGVWIIESLEFH | 1.29
DESDKYVHHVAELMIEWFLTGDEELFEEYADPNMRVIFENHENHGREEVMKHMHDWWRKVKNVRVEYRIRDVQFQGDKARIEGELIIRIDGRNVIREVEYHILVIDGVLHSYKLVYK | 1.47
DESDTLAKEATREFEEFMRTGDEHSLLKLADPHVRLFWNGKQLVGREDYSKHIKFLLEHFGFDNIESRTEHIDWQGDKLRLHLRMHVNGKTITVEIHSEKINGRWMNREIHFT | 1.44
DESEDAVRKSMELWEESMRTGNEERLIELVDPNVRLDINGQIYHGWSQFVEVIFNEFRHARLESIEIHEVRLQGDKIRSRTTLVIRINGRLKHLDVRFIVKKVDGRWQIHSEERE | 1.31
DESEEDVEYFVKILDRAWATGDEDTLRRLLDPHYRVHVDGKDIIGREEVVRLFKEMGWELRFHRDHIHVQGDKMFIHGTLRLIYNGRIEEREIHLDVNKINGRWLNERVEIR | 1.81
DESEEEMKKAFKDLVDSLLTGDEHLLRTFADPNMRLRIGDKTFHGRETYSEIFLKEWKKLGIKHYQVTIHHLEVQGDKIHVDTRVNVHIGDWTIHRETRLHITKVNGQWILRQEDVD | 0.416
DESEEESHKVAELVIKIWETGDEHIWENLADPHTRYEIDGKIIHGREIASHIMRIFLERVKNVTFRIKDVKRHVYNGVIEVRNETELNIGDKRIDTHIMVILRKVNGRWYMTEVRFQID | 1.53
DESEEHSEIMLRILHHALRTGDEEEITRLLDPHVRVIIGDKHYHGWEDYVKTVFTTAKEMRMHIHITDSKVQGNYVHLDTRLLIHYNGKTFTYNTRLVTVKVNGQWRLHSETSH | 1
DESEEKAREFLEILVRDVRTGDEESAVRLLDPNVRIEQGDKELHGWEVYIHWAKHIRMRSVHLRTMEVQGDKVILRGDERQEIDGVESVRDVIVYVRKINGRWVMTSIEVL | 2.15
DESEELAERLLEEMEELILTGDWEKFVRMVDPHARFVIGEFDNHGRETFVKELLELRVHIRDSRIREIDVQGEKIRMHTQIDFEIDVDGVRHRREHSFHFIVLKIDGRWSVQQLRIK | 0.64
DESEELAKQFMEVLARSMRTGDEEKIVKMLDPNVKVVINGVELHGREALEHILREIRVEDVWLTHIFVQGEKVRIDYREKGEFNGRLDTLTVHIIVKKIDGKWKITEFRIH | 1.89
DESEELSRIASHLFLRMMHTGNEEEISKLADPNTRLDVNGKHFHGMELIIHFLHELRRKLGVKYIRLKSVHITIVNGKVDLELEGDLLQGDFEIPSHIRNIALKVDGKWFIHRQEFRFE | 1.32
DESEELTEELSRLWLHWYLTGDEEIFKHNFDPNARQDYNGKEIHGRDRVVRFLEELWRMLGAKHFHIRHEEYYGNKVRIEGHITVGDKHRETEIQINIINGKIKEIRIEVK | 2.12
DESEELTKEAKRVYYETMRTGDEHNLKRLMDPNTRMDFNGVEFHGREAVKILVEQADHLEDVRIKRERVDEHEVELHGEFHGKVNGRHTTTHVILFWLKYNGRWRVKELQVR | 0.84
DESEELVRRFLEERIQDLRTGNWERIHENLDPNVRLIVNGRIFHGREALHVFRRRVDHNEDEKIRDVRIQGDKAEVDMEVLGVVNGVRTNFEAKLIMTKFDGKWSVKEVQID | 1.75
DESEERSRHATELFIRAIHTGDEHTLMNLLDPHVRTHYGDKEVHGRENVVKVMLELLHKLGADHVRWEYHDFKDINGRLHMDWRLHVVVGDKELTLQTHIITEKINGRWHSKYMEIR | 0.183
DESEESALKFLKEWREHFRTGNEDHMEELADPNVRVVIGDKEYHGWEETSRLISEKLRHMRVKFVLHTIRVVDGRIHVKSSLIIEVGDKELRVETSYHFEKVNGRWRLRVIHQE | 1.27
DESEESIRKVVKLLERAHRTGDEHEMKHLLDPNAKLIINGVELHGMELFEKLFKFERHHWRLHSMHVRHVDTQGDKANSDGEEDREFDGRREEVKTIIVMVKIDGRWHVKHIIFL | 1.08
DESEESMRHALEEIIESMVTGDEDRLRELADPNVRSKVNGRDIHGWKVVSKLVKELRIRDVKVEDKDREVQGEWMYFHGLFRIDGEFDGRRVDLELDLTIIAHKVNGRWVIRMFKYR | 1.63
DESEESSKEAWRLLLEMWKTGDEDEYSRMIDPNVRIEIGDKHFHGMEHASKRLQTFLKKLGFKHFRMILRDKDSQGNKIEIDLQIDIHQGDYHIHRRVTLILVKVDGKWSVESHHVI | 1.68
DESEETAVRMFKHWIRMIETGDEDSLEELADPNVRLEVNGQEVHGRELFLRFFLEMRIKRVRLRHIETQGEKLIIHGELDGEINGRRQETRVIIIVRKVDGKWIIKSIRIE | 2.76
